Measurements from PMC3784395, “Ectopic Expression of WUS in Hypocotyl Promotes Cell Division via GRP23 in Arabidopsis”.

T1: GST-WUS (WUSCHEL) (UniProt Q9SB92 1-292)
T1 sequence: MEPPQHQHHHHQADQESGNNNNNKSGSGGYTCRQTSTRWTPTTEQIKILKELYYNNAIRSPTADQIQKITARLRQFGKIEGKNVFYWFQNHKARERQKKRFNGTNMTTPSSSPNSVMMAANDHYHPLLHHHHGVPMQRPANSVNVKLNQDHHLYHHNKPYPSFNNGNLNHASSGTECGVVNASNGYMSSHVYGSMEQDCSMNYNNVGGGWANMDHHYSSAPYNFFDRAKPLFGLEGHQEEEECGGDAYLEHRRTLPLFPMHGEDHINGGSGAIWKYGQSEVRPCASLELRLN

B1: GRP23 promoter probe wt (-748 to -709) (dsDNA)
DNA 1: CATATATCTTTAATACTGTTAATGATCTTTCTTCAAAAAC
DNA 2: GTTTTTGAAGAAAGATCATTAACAGTATTAAAGATATATG
B2: GRP23 promoter mutant (both TAAT to GGGG) (dsDNA)
DNA 1: CATATATCTTGGGGACTGTGGGGGATCTTTCTTCAAAAAC
DNA 2: GTTTTTGAAGAAAGATCCCCCACAGTCCCCAAGATATATG

Columns and labels:
GST-WUS (WUSCHEL) [1] = molecular target: T1, GST-WUS (WUSCHEL); assay: EMSA; Lightshift Chemiluminescent EMSA kit (Pierce), per manufacturer; buffer, salt, pH and temperature not stated; conditions: protein: recombinant; chain copies: 2; label: 3' biotin on both strands (probe); blunt
GST-WUS (WUSCHEL) [2] = molecular target: T1, GST-WUS (WUSCHEL); assay: competition; unlabeled mutant competitor up to 800x excess vs labeled N1; Lightshift Chemiluminescent EMSA kit (Pierce), per manufacturer; buffer, salt, pH and temperature not stated; conditions: protein: recombinant; chain copies: 2; blunt

Binder	binding result (GST-WUS (WUSCHEL) [1])	binding result (GST-WUS (WUSCHEL) [2])
B1	binds	–
B2	–	no binding
